Legend:
[1] = biological target: T1, CD22 receptor on the Daudi cell line (human, UniProt P20273 20-847); assay: cell-based or functional assay
T1 sequence (looked up): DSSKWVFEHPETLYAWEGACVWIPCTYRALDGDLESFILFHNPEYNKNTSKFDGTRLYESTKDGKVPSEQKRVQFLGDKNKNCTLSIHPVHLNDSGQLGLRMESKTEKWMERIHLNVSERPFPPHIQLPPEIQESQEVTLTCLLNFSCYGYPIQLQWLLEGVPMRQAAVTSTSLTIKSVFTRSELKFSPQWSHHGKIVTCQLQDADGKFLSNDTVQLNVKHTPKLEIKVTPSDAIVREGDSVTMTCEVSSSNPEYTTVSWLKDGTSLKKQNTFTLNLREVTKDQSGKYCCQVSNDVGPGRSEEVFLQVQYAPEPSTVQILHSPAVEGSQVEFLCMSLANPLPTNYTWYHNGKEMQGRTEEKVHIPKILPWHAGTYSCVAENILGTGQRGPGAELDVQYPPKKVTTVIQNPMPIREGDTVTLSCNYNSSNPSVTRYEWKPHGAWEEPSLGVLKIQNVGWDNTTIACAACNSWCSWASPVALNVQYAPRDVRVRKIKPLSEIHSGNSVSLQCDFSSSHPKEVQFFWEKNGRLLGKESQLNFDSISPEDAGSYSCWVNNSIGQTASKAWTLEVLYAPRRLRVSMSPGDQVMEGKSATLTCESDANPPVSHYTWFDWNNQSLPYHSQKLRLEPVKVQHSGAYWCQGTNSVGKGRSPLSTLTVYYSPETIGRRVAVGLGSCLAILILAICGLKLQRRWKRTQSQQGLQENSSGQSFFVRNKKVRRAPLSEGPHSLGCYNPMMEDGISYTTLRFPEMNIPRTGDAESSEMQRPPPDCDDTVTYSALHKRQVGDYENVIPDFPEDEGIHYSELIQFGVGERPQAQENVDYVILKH

[2] = biological target: T1, CD22 receptor on the Daudi cell line; assay: cell-based or functional assay; remark: listed apart in the source

B1: CAT-8015 (other)
VH: MEVQLVESGGGLVKPGGSLKLSCAASGFAFSIYDMSWVRQTPEKCLEWVAYISSGGGTTYYPDTVKGRFTISRDNAKNTLYLQMSSLKSEDTAMYYCARHSGYGTHWGVLFAYWGQGTLVTVSAKASGGPEGGSLAALTAHQACHLPLETFTRHRQPRGWEQLEQCGYPVQRLVALYLAARLSWNQVDQVIRNALASPGSGGDLGEAIREQPEQARLALTLAAAESERFVRQGTGNDEAGAANGPADSGDALLERNYPTGAEFLGDGGDVSFSTRGTQNWTVERLLQAHRQLEERGYVFVGYHGTFLEAAQSIVFGGVRARSQDLDAIWRGFYIAGDPALAYGYAQDQEPDARGRIRNGALLRVYVPRSSLPGFYRTSLTLAAPEAAGEVERLIGHPLPLRLDAITGPEEEGGRLETILGWPLAERTVVIPSAIPTDPRNVGGDLDPSSIPDKEQAISALPDYASQPGKPPREDLK
VL: MDIQMTQTTSSLSASLGDRVTISCRASQDISNYLNWYQQKPDGTVKLLIYYTSILHSGVPSRFSGSGSGTDYSLTISNLEQEDFATYFCQQGNTLPWTFGCGTKLEIK
modifications: Asn-358 partially deamidated to Asp-358 and iso-Asp-358 in the preparations tested (extent differs by pool)
Relative Potency (%) in apoptosis bioassay (Caspase-Glo 3/7, Daudi cells; EC50 of Reference Standard / EC50 of test sample); sample: QHP Eluate Pool, bench scale (16.5% pre-peak) [1]: 80% | Relative Potency (%) in apoptosis bioassay (Caspase-Glo 3/7, Daudi cells; EC50 of Reference Standard / EC50 of test sample); sample: QHP Load Pool, bench scale (53.8% pre-peak) [1]: 52% | Relative Potency (%) in apoptosis bioassay (Caspase-Glo 3/7, Daudi cells; EC50 of Reference Standard / EC50 of test sample); sample: QHP Eluate Pool, large scale (17% pre-peak) [2]: 75% | Relative Potency (%) in apoptosis bioassay (Caspase-Glo 3/7, Daudi cells; EC50 of Reference Standard / EC50 of test sample); sample: QHP Load Pool, large scale (50.3% pre-peak) [2]: 51%

From patent publication US20210395370A1 (AstraZeneca / MedImmune, published 2021)
